T1: pACSH248 fusion protein (S661 peptide with N-terminal SEQ ID NO:19 tag and TEV cleavage site linker)
T1 chain: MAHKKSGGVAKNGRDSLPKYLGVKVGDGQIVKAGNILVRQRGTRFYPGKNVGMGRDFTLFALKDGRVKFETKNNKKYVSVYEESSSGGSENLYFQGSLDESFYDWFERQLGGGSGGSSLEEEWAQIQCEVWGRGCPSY

T2: pACSH360 fusion protein (S661 peptide with N-terminal SEQ ID NO:19 tag and HAV18 3C cleavage site linker)
T2 chain: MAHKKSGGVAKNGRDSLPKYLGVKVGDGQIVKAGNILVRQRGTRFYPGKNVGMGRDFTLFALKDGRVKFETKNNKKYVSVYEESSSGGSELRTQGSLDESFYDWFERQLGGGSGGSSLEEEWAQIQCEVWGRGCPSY

B1: pACSH307 protease (SEQ ID NO:10 tagged TEV protease) (protein)
chain: MKVILLRDVPKIGKKGEIKEVSDGYARNYLIPRGFAKEYTEGLERAIKHEKEIEKRKKEREREESEKILKELKKRTHVVKVKAGEGGKIFGAVTAATVAEEISKTTGLKLDKRWFKLDKPIKELGEYSLEVSLPGGVKDTIKIRVEREESSSGSSGSSGSSGESLFKGPRDYNPISSTICHLTNESDGHTTSLYGIGFGPFIITNKHLFRRNNGTLLVQSLHGVFKVKNTTTLQQHLIDGRDMIIIRMPKDFPPFPQKLKFREPQREERICLVTTNFQTKSMSSMVSDTSCTFPSSDGIFWKHWIQTKDGQCGSPLVSTRDGFIVGIHSASNFTNTNNYFTSVPKNFMELLTNQEAQQWVSGWRLNADSVLWGGHKVFMVKPEEPFQPVKEATQLMN
B2: pACSH362 protease (SEQ ID NO:10 tagged HAV18 3C protease) (protein)
chain: MKVILLRDVPKIGKKGEIKEVSDGYARNYLIPRGFAKEYTEGLERAIKHEKEIEKRKKEREREESEKILKELKKRTHVVKVKAGEGGKIFGAVTAATVAEEISKTTGLKLDKRWFKLDKPIKELGEYSLEVSLPGGVKDTIKIRVEREESSSGSGSGSGSTLEIAGLVRKNLVQFGVGEKNGCVRWVMNALGVKDDWLLVPSHAYKFEKDYEMMEFYFNRGGTYYSISAGNVVIQSLDVGFQDVVLMKVPTIPKFRDITEHFIKKGDVPRALNRLATLVTTVNGTPMLISEGPLKMEEKATYVHKKNDGTTVDLTVDQAWRGKGEGLPGMCGGALVSSNQSIQNAILGIHVAGGNSILVAKLVTQEMFQNIDKKIESQ

How the values were obtained:
[1] = target: T1, pACSH248 fusion protein (S661 peptide …)
[2] = target: T2, pACSH360 fusion protein (S661 peptide …)

| Protein | cleavage of fusion protein, LC-MS, 8 hours, enzyme to substrate ratio 1:1 [1] | cleavage of fusion protein, LC-MS, 7 hours at 37° C., enzyme to substrate ratio 1:10 or 1:50 [2] |
| --- | --- | --- |
| B1 | after incubation for 8 hours with an enzyme to substrate ration of 1:1, the major part of the S661 peptide was released from the pACSH248 fusion protein |  |
| B2 |  | A fragment representing the released S661 peptide was observed for both ratios |
